Where a chain is given by its changes, count along the chain named. Names may count otherwise.
B1: Wild-type CapuCT (C-terminal Capu construct, residues 467–1059) (domain or fragment)
chain: VSDNESAKEDGEKPHAVAPPPPPPPPPLHAFVAPPPPPPPPPPPPPPLANYGAPPPPPPPPPGSGSAPPPPPPAPIEGGGGIPPPPPPMSASPSKTTISPAPLPDPAEGNWFHRTNTMRKSAVNPPKPMRPLYWTRIVTSAPPAPRPPSVANSTDSTENSGSSPDEPPAANGADAPPTAPPATKEIWTEIEETPLDNIDEFTELFSRQAIAPVSKPKELKVKRAKSIKVLDPERSRNVGIIWRSLHVPSSEIEHAIYHIDTSVVSLEALQHMSNIQATEDELQRIKEAAGGDIPLDHPEQFLLDISLISMASERISCIVFQAEFEESVTLLFRKLETVSQLSQQLIESEDLKLVFSIILTLGNYMNGGNRQRGQADGFNLDILGKLKDVKSKESHTTLLHFIVRTYIAQRRKEGVHPLEIRLPIPEPADVERAAQMDFEEVQQQIFDLNKKFLGCKRTTAKVLAASRPEIMEPFKSKMEEFVEGADKSMAKLHQSLDECRDLFLETMRFYHFSPKACTLTLAQCTPDQFFEYWTNFTNDFKDIWKKEITSLLNELMKKSKQAQIESRRNVSTKVEKSGRISLKERMLMRRSKN
B2: CapuCT-H977Y (domain or fragment)
chain: B1 chain with H511Y
B3: CapuCT-K586M (domain or fragment)
chain: B1 chain with K120M
B4: CapuCT-P597L (domain or fragment)
chain: B1 chain with P131L
B5: CapuCT-D854N (domain or fragment)
chain: B1 chain with D388N
B6: CapuCT-D662N (domain or fragment)
chain: B1 chain with D196N
B7: CapuCT-I751T (domain or fragment)
chain: B1 chain with I285T

Biological target: the molecule itself
Assay: SEC

| Binder | stoichiometry N |
| --- | --- |
| B1 | 2 |
| B2 | 2 |
| B3 | 2 |
| B4 | 2 |
| B5 | 2 |
| B6 | 2 |

Biological target: Taxol-stabilized microtubules (tubulin, Cytoskeleton T240) (UniProt P02550)
Assay: co-sedimentation

| Kd | stoichiometry N (α/β dimers per binding site) | Binder |
| --- | --- | --- |
| 150 nM | 1.42 | B1 |
| 180 nM | 0.95 | B2 |
| 250 nM | 0.88 | B3 |
| 300 nM | 0.88 | B4 |
| 100 nM | 1.48 | B5 |
| 250 nM | 0.87 | B6 |

Biological target: Acanthamoeba castellani actin (filaments) (Acanthamoeba castellani)
Assay: not given

| koff | Binder |
| --- | --- |
| 0.000245 s⁻¹ | B1 |
| 0.00277 s⁻¹ | B7 |
| 0.0013 s⁻¹ | B2 |
| 0.000852 s⁻¹ | B3 |
| 0.0021 s⁻¹ | B4 |
| 0.000592 s⁻¹ | B5 |
| 0.000297 s⁻¹ | B6 |
